In paper PMC314469, “Protein Interaction Networks by Proteome Peptide Scanning” (PLoS Biology, 2004) one finds normalised SPOT signal, Boehringer light units (BLU); mean over the file's lines of this peptide data, which are given here for 14 molecules.

Holding throughout (assay): SPOT array
The target in assay [1] is T1, Boi1 SH3 (BOI1_YEAST), P38041.
T1 chain: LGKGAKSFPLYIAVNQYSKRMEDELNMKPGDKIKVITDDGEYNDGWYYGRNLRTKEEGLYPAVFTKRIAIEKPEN

Assay [2] deals with T2, Boi2 SH3 (BOI2_YEAST), P39969.
T2 chain: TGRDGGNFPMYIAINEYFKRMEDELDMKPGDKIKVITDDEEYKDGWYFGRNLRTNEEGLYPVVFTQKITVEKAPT

Assay [3] addresses T3, Myo5 SH3 (MYO5_YEAST), Q04439.
T3 chain: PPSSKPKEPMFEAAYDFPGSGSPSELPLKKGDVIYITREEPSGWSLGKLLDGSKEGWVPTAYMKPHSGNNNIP

The target in assay [4] is T4, Rvs167 SH3 (RV167_YEAST), P39743.
T4 chain: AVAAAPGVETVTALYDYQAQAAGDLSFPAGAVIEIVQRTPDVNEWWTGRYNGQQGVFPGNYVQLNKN

In assay [5] the target is Sho1 SH3 (SHO1_YEAST), P40073.
Sequence of Sho1 SH3 (SHO1_YEAST), P40073 (P40073 295-366): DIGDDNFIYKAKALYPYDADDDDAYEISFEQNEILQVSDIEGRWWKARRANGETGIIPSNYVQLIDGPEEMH
Assay [6] deals with T5, Yfr024 SH3 (LSB3_YEAST), P43603.
T5 chain: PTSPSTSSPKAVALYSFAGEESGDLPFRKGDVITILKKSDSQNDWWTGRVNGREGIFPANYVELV

The target of assay [7] is T6, Yhr016c SH3 (YSC84_YEAST), P32793.
T6 chain: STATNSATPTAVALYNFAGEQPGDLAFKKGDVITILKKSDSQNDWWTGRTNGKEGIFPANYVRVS

Turning to HEASKSFPKAPQAS [YKL105C 877-890], the normalised SPOT signal, Boehringer light units (BLU); mean over the file's lines of this peptide in assay [1] was 0; in assay [2] it was 7.4; in assay [3] it was 289; in assay [4], 13.4; in assay [5] it was 70.5; in assay [6] it was 27.3. The molecule further registered a normalised SPOT signal, Boehringer light units (BLU); mean over the file's lines of this peptide in assay [7] of 26.5.

As to GSQWKNHPDWPFWV [YLR057W 726-739], the normalised SPOT signal, Boehringer light units (BLU); mean over the file's lines of this peptide in assay [1] is 133; in assay [2], 9.6; in assay [3], 108; in assay [4] it was 46.8; in assay [5], 14.5; in assay [6], 69.9. The molecule further registered a normalised SPOT signal, Boehringer light units (BLU); mean over the file's lines of this peptide in assay [7] of 18.7.

Consider GYNPKTVPFVPISG [YBR118W 180-193], for which the normalised SPOT signal, Boehringer light units (BLU); mean over the file's lines of this peptide in assay [1] amounted to 39.8; in assay [2], 5.8; in assay [3], 108; in assay [4], 25; in assay [5] it was 25; in assay [6] it was 13.3. In assay [7], this molecule showed a normalised SPOT signal, Boehringer light units (BLU); mean over the file's lines of this peptide of 37.2.

In the case of GTRPKILPKIPTGA [YOR227W 1148-1161], the normalised SPOT signal, Boehringer light units (BLU); mean over the file's lines of this peptide in assay [1] is 148; in assay [2], 27.1; in assay [3], 773; in assay [4], 22.1; in assay [5] it was 11800; in assay [6], 432. In assay [7], this molecule returned a normalised SPOT signal, Boehringer light units (BLU); mean over the file's lines of this peptide of 31.6.

As for HELVKSDPHFPYGT [YDL117W 838-851], the normalised SPOT signal, Boehringer light units (BLU); mean over the file's lines of this peptide in assay [1] turned out to be 37.2; in assay [2] it was 32.3; in assay [3] it was 229; in assay [4], 29.9; in assay [5], 11.7; in assay [6], 2.5. Besides, the normalised SPOT signal, Boehringer light units (BLU); mean over the file's lines of this peptide in assay [7] was determined as 17.

As to HFNTKKIPELPSQF [YML051W 376-389], the normalised SPOT signal, Boehringer light units (BLU); mean over the file's lines of this peptide in assay [1] was determined as 118; in assay [2], 35.7; in assay [3], 467; in assay [4], 235; in assay [5], 1960; in assay [6] it was 204. Moreover, in assay [7], the normalised SPOT signal, Boehringer light units (BLU); mean over the file's lines of this peptide turned out to be 4.9.

Consider GYDEKGNPIPPNNW [YJL216C 137-150], for which the normalised SPOT signal, Boehringer light units (BLU); mean over the file's lines of this peptide in assay [1] was 70; in assay [2], 33.1; in assay [3] it was 96; in assay [4], 46.1; in assay [5] it was 66.3; in assay [6], 0. Further, in assay [7], the normalised SPOT signal, Boehringer light units (BLU); mean over the file's lines of this peptide is 9.3.

Regarding HEVPKRSPEKPSNP [YNL278W 806-819], the normalised SPOT signal, Boehringer light units (BLU); mean over the file's lines of this peptide worked out at 91.8 in assay [1]; 2.4 in assay [2]; 172 in assay [3]; 46.4 in assay [4]; 64.4 in assay [5]; 148 in assay [6]. For the same molecule, the normalised SPOT signal, Boehringer light units (BLU); mean over the file's lines of this peptide in assay [7] came out at 61.8.

As to HEREKALPPIPFTT [YLR425W 196-209], the normalised SPOT signal, Boehringer light units (BLU); mean over the file's lines of this peptide came to 54.9 in assay [1]; 1.7 in assay [2]; 215 in assay [3]; 42.8 in assay [4]; 57900 in assay [5]; 158 in assay [6]. The normalised SPOT signal, Boehringer light units (BLU); mean over the file's lines of this peptide in assay [7] worked out at 15.2.

As to GTGRRRSPSTPIMP [YNR047W 192-205], the normalised SPOT signal, Boehringer light units (BLU); mean over the file's lines of this peptide in assay [1] worked out at 625; in assay [2] it was 52; in assay [3], 921; in assay [4] it was 92.4; in assay [5] it was 52.3; in assay [6], 802. This molecule returned a normalised SPOT signal, Boehringer light units (BLU); mean over the file's lines of this peptide in assay [7] of 24.

Turning to HFPSRSQPSDPKLQ [YKR028W 906-919], the normalised SPOT signal, Boehringer light units (BLU); mean over the file's lines of this peptide in assay [1] amounted to 91.5; in assay [2] it was 17.7; in assay [3] it was 258; in assay [4], 68.1; in assay [5], 321; in assay [6], 294. The molecule also gave a normalised SPOT signal, Boehringer light units (BLU); mean over the file's lines of this peptide in assay [7] of 32.6.

With GSYIKRTPKIPEKD [YDR026C 219-232], the normalised SPOT signal, Boehringer light units (BLU); mean over the file's lines of this peptide is 129 in assay [1]; 32.5 in assay [2]; 206 in assay [3]; 153 in assay [4]; 554 in assay [5]; 436 in assay [6]. Moreover, the normalised SPOT signal, Boehringer light units (BLU); mean over the file's lines of this peptide in assay [7] is 52.

Regarding GTTNRGPPPLPPRA [YLR144C 18-31], the normalised SPOT signal, Boehringer light units (BLU); mean over the file's lines of this peptide was 49900 in assay [1]; 30.6 in assay [2]; 39900 in assay [3]; 88000 in assay [4]; 626 in assay [5]; 43600 in assay [6]. Besides, the normalised SPOT signal, Boehringer light units (BLU); mean over the file's lines of this peptide in assay [7] amounted to 69100.

For GTVTKTAPSFPQSS [YPL075W 604-617], the normalised SPOT signal, Boehringer light units (BLU); mean over the file's lines of this peptide in assay [1] came to 144; in assay [2], 135; in assay [3], 261; in assay [4], 63.6; in assay [5], 25.5; in assay [6] it was 20. Further, the normalised SPOT signal, Boehringer light units (BLU); mean over the file's lines of this peptide in assay [7] is 45.4.
